Results taken from patent US20190105405A1 (MONASH UNIVERSITY, published 2019).

T1: AxxA mutant human ADAM10 (Cys594 and Cys597 to alanine) (human, UniProt O14672 214-748)
T1 construct: Expressed in ADAM10-/- mouse embryonic fibroblasts; tested in detergent lysates by IP; also called AXXA mutant ADAM10; AxxA ADAM10; not shown: turbo-myc tag of the OriGene construct
T1 sequence: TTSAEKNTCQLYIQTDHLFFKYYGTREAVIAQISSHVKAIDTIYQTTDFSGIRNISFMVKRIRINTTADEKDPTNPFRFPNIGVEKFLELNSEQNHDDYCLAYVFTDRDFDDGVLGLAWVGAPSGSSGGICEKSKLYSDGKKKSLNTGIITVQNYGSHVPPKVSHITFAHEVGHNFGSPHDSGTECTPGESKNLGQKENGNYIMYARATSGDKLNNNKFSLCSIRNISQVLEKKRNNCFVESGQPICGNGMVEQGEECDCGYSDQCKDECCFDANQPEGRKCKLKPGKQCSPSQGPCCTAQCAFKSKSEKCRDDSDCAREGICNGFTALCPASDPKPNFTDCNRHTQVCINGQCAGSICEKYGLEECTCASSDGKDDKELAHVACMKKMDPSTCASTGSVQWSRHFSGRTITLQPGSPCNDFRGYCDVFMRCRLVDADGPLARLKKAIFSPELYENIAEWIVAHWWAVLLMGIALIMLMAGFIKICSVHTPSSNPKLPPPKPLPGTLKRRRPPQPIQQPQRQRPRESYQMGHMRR

T2: recombinant huADAM10D+C protein (human, UniProt O14672 455-646)
T2 construct: the whole entry is named here (the bovine construct was 455-646); also called huADAM10D+C domain protein; immobilised recombinant huADAM10D+C
T2 sequence: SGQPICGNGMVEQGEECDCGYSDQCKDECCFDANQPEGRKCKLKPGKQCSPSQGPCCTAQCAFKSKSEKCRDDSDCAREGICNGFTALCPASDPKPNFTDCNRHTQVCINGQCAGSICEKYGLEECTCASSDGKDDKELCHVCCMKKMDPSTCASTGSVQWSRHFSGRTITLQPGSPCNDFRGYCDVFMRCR


Columns and labels:
[1] = molecular target: PDIA1 (human) (UniProt P07237); assay: co-IP from LIM1215 lysates equalised for ADAM10, mass spectrometry
Chain of PDIA1 (human) (P07237 18-508 limits assumed): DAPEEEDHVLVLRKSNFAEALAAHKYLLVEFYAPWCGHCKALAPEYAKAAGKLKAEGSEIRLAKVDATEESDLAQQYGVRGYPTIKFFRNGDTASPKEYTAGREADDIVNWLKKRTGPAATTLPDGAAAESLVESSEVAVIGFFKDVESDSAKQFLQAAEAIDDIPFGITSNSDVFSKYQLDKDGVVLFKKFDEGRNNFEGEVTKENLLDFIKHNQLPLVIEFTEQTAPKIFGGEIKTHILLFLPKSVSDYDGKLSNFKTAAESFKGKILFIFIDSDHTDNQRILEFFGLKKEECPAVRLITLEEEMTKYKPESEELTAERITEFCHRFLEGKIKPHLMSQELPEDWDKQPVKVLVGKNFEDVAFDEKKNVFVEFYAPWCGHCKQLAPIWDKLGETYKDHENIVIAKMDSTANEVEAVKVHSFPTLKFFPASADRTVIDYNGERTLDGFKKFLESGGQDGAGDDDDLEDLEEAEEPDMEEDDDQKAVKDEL

[2] = molecular target: T1, AxxA mutant human ADAM10 (Cys594 and …); assay: immunoprecipitation from lysates of ADAM10-/- MEFs transfected with AxxA mutant ADAM10, Western blot α-ADAM10
[3] = molecular target: T2, recombinant huADAM10D+C protein; assay: SPR, BIAcore 3000, huADAM10D+C immobilised, antibody in solution

fold more peptides detected in 8C7 IPs than in 4A11 IPs [1] [fold]	binding result [2]	Kd [3] [nM]	koff [3] [s⁻¹]	kon [3] [M⁻¹ s⁻¹]	Molecule
> 50	–	–	–	–	human ADAM10, endogenous full length (from UniProt O14672 214-748) (enzyme)
–	no binding	–	–	–	anti-ADAM10 monoclonal antibody 8C7 (murine) (antibody, V domains shown, Alexa647 dye or coupling to Minileak beads in some experiments; not carried by the letters, Murine whole IgG; Used soluble, coupled to Minileak beads, or Alexa647-labelled depending on the experiment; also called mAb 8C7; mAb8C7) VH: EVQLQQSGAELARPGSSVKLSCKASGYTFTNYWLQWVKQRTGQGLEWIGAIYPRDGDAKYSQKFKDKASLTVNESSSTAYMHLSALASEDSAVYYCARANYGLYYAMDRWGQGTSVTVSS VL: DIFLTQSPANMSVSPGERVSFSCRASQNIGTNIHWYQQRTNGSPRLLIKYASESISGIPSRFSGSGSGTDFILSINTVESEDIAVYFCQQSNRWPFTFGSGTKLEVI

More lines, now with the values behind:

Molecule	fold more peptides detected in 8C7 IPs than in 4A11 IPs [1] [fold]	binding result [2]	Kd [3] [nM]	koff [3] [s⁻¹]	kon [3] [M⁻¹ s⁻¹]
ch8C7, human and mouse chimerised version of mAb 8C7 (antibody, V domains shown, The exact V/C junction is not described; also called chimeric 8C7) VH: EVQLQQSGAELARPGSSVKLSCKASGYTFTNYWLQWVKQRTGQGLEWIGAIYPRDGDAKYSQKFKDKASLTVNESSSTAYMHLSALASEDSAVYYCARANYGLYYAMDRWGQGTSVTVSS VL: DIFLTQSPANMSVSPGERVSFSCRASQNIGTNIHWYQQRTNGSPRLLIKYASESISGIPSRFSGSGSGTDFILSINTVESEDIAVYFCQQSNRWPFTFGSGTKLEVIR	–	–	6.71	0.00105	157000
hu8C7, fully humanised version of 8C7 (antibody, human IgG1, kappa, V domains shown, Human IgG1-kappa; humanised variable domains replaced the murine ones in the ch8C7 constructs; The exact V/C junction is not described; also called humanized 8C7) VH: EVQLQQSGAELAKPGSSVKLSCKASGYTFTNYWLQWVKQRPGQGLEWIGAIYPRDGDAKYSQKFKDKASITVNESTSTAYMHLSSLRSEDTAVYYCARANYGLYYAMDRWGQGTTVTVSS VL: DIVLTQSPAFMSVSPGERVSVSCRASQNIGTNIHWYQQRPDQSPRLLIKYASESISGIPSRFSGSGSGTDFYLTINSVESEDIAVYFCQQSNRWPFTFGSGTKLEVKR	–	–	7.33	0.00122	166000
